# Test results reported in US20180334496A1 (KODIAK SCIENCES, published 2018).
# Numbering of substitutions follows the chain as printed.
# B1: KCD001 (antibody, V domains shown)
# VH: EVQLQQSGPELVKPGASVKISCKASDNSFTGYYMHWVKQSHGNILDWIGYIDPYNGVSSYNQKFKGKATLTVDKSSSTAYMEIRSLTSEDSAVYYCASYYGSSPYWYFDVWGTGTTVTVSS
# VL: QIVLSQSPAILSASPGEKVTMTCRASSSVSYMHWYQQKPGSSPKPWIYATSNLASGVPARFSGSGSGTSHFLTISRLEAEDAATYFCQQWSSNPYTFGGGTKLEIK
# B2: KCD111 (antibody, V domains shown)
# VH: B1 VH with D26G, N27Y, G31D, T71S, K74Q, I83L, A97S, T116R
# VL: B1 VL with A59T, H70Y, F71S, R76K, F86Y
# B3: KCD011 (antibody, V domains shown)
# VH: EVKLVESGGGLVQPGGSLKLSCAASGFTFSSNTMSWVRQTPEKRLEWVAYITNGGGSTYYPDTVKGRFTISRDNARNTLYLQMSSLKSEDTAMYYCARHDYYTMDYWGQGTSVTVSS
# VL: DIQMTQSPSSLSASLGGKVTITCKASQDINKYIAWYQHKPGKGPRLLIHYTSTLQPGIPSRFSGSGSGRDYSFSISNLEPEDIATYYCLQYDNLLYTFGGGTKLEIK
# B4: KCD062 (antibody, V domains shown)
# VH: EVKLVESGGGLVQPGGSLKLSCAASGFTFSTYIMSWVRQTPEKRLEWVAYITSGGSSTYYPDTVKGRFTISRDNAKSTLYLQMSSLKSEDTAMYYCARHAHFYAMDYWGQGTSVTVSS
# VL: B3 VL
# B5: KCD057 (antibody, V domains shown)
# VH: EVKLVESGGGLVQPGGSLKLSCAASGFTFSNYIMSWVRQTPEKRLEWVAYITNGGGATYYPDTVKGQFTISRDNAKNTLYLQMSSLKSEDTAIYYCARHDFYALDFWGQGTSVTVSS
# VL: B3 VL with Q90K
# B6: KCD056 (antibody, V domains shown)
# VH: B3 VH with L20V, S31T, N32Y, V64E, R76K, A97V, T103A
# VL: B3 VL with K103T
# B7: KCD058 (antibody, V domains shown)
# VH: B5 VH with G10D, N31R, Q39L, Y50F, A57N, Y60H, Q67R, K76N, F101Y, F106Y
# VL: B3 VL
# B8: KCD033 (antibody, V domains shown)
# VH: EVQLQQSGPELVKPGASMKISCTASGYSFTGYTMTWVKQSHGKNLEWIGLINPYNGGTNYNQKFKGKATLTVDKSSSIAYMELLSLTSEDSAVYYCARRHYGSNWDYWGQGTTLTVSS
# VL: DIKLTQSPSSIYTSLGERVTITCKASQDINTYLSWFQQRPGKSPKTLIYRADRLVDGVPSRVRGSGSGQDYSLTISSLEYEDMGIYYCLQYDEFPYTFGGGTKLEIK
# B9: KCD036 (antibody, V domains shown)
# VH: B8 VH with T23K, L70F, I78T, N104S
# VL: B8 VL with I11M, T13A, R39K, D52N, V62F, R63S, D82E
# B10: KCD216 (antibody, V domains shown)
# VH: QVHLQQSGPELVKPGASVKISCKASGYTFIDYYINWVKQRPGQGLEWIGWIFPGSDSTYYNEKFKGKATLTVDKSSSTAYMLLSSLTSEDSAVYFCARYGYYGSSFYAMDYWGQGTSVTVSS
# VL: DIQMTQSPASLSVSVGETVTITCRASENIYSNLAWYQQKQGKSPQLLVYAATNLADGVPSRFSGSGSGTQYSLKINSLQSEDFGSYYCQHFWGTPPTFGGGSKLEIK
# B11: KCD042 (antibody, V domains shown)
# VH: EVQLQQSGAELVKPGASVRLSCTASGFNIKHTYIHWVSQRPEQGLEWIGKIDPANGNTKYDPKFQGKATITADTSSNTAYLQLSSLTSEDTAVYYCVNAMEYWGQGTSVTVSS
# VL: QSVLTQSPAIMSASPGEKVTMTCSANSSVSDMYWFQQRPGSSPRLLIYDTSNLASGVPVRFSGSGSGTSYSLTISRMEAEDAATYYCQQWSTYPWTFGGGTKLEIK
# B12: KCD044 (antibody, V domains shown)
# VH: B11 VH with I34M, Q43R, A79V, V97L
# VL: B11 VL with F35Y
# B13: KCD005 (antibody, V domains shown)
# VH: EVQLQQSGPELVKPGASVKISCKASGYTFTDHYMNWVKQSHGKSLEWIGDINPNNGGTSCNQKFKGKATLTVDKSSSTAYMELRSLTSGDSAVYYCTREGASFAFWGQGTLVTVSA
# VL: DVLMTQTPLSLPVSLGDQASISCRSSQSIVHSNGDTYLEWYLQKPGQSPKLLIYKVSNRFSGVPDRFSGSGSGTDFTLKISRVEAEDLGVYYCFQGSHVPVTFGAGTKLELK
# B14: KCD009 (antibody, V domains shown)
# VH: QIQLVQSGPELKKPGETVKISCKASGYIFRNYGMNWVKQGPGKGLKWMGWINTYTGEPTYADDFKGRFAFSLETSASTAYLQISNLKNEDTATYFCVRDGPGFAYWGQGTLVTVSA
# VL: B13 VL with Q27L, S28I, V30E, N33D, D35N, E86D, K108N
# B15: KCD232 (antibody, V domains shown)
# VH: EVQLVESGGGLVQPKGSLKLSCAASGFSFNTYAMNWVRQAPGKGLEWVARIRSKSNNYATYYADSVKDRFTISRDDSESMVYLQMNNLKTEDTAMYYCVRHGYYWYFDVWGTGTTVTVSS
# VL: B13 VL with N33D, D35N, K55R, V83M, V101Y, A105G, L111I
# B16: KCD124 (antibody, V domains shown)
# VH: B13 VH with C60Y
# VL: B13 VL with V101L
# B17: KCD015 (antibody, V domains shown)
# VH: EVQLQQSGAELVKPGASVKLSCTASGFNIKDTYMHWVKQRPEQGLEWIGRIDPANGYTEYDPKFQGKATITADTSSNTAYLQLSSLTSEDSAAYYCTSAMEFWGQGTSVTVSS
# VL: QIVLTQSPAILSASPGEKVTMTCSASSSVSYIYWYQQKPRSSPRLLIYDTSNLASGVPVRFSGSGSGTSYSLTISRMEAEDAATYYCQQWSSYPFTFGGGTKLEVK
# B18: KCD048 (antibody, V domains shown)
# VH: EVQLQQSGADLVKPGASVKLSCTASGFNIKATYMHWVRQRPEKGLEWIGRIDPANGHTIYDPQFQGKATITSDTSSNTAYLQLNSLTSEDTAVYYCAEAMDYWGQGTSVTVSS
# VL: B17 VL with L11M, M21L, S26T, I32M, R40G, A82D, S92N, V105I
# B19: KCD022 (antibody, V domains shown)
# VH: DVQLQESGPDLVKPSQSLSLTCTVTGYSITSGYSWHWIRQFPGNTLEWMGYIHYSGSTNYNPSLESRISFTRDTSKNQFFLQLNSVTTEDTATYYCALHFYGYNLGWYFDVWGAGTTVTVSS
# VL: DIVMTQSHKFMSTSIGDRVIITCKASQDVGTTVAWYQQRPGQSPKLLIYWASTRHTAVPDRFTGSGSGTDFTLTISNVQSEDLADYFCQQYTSYPLTFGAGTQLELK
# B20: KCD010 (antibody, V domains shown)
# VH: EVLLQQSGPELVKPGASVKIPCKASGYTFTDYDMDWVKQSHGKSLEWIGHINPNNGGTIYNQKFKGKATLTVDKSSSTAYMELRSLTSEDTAVYYCGTGDFAYWGHGTLVTVSA
# VL: QIVLTQSPAIMSVSPGEKVTLTCSASSSVSSSYLYWYQKKPGSSPKLWIYSTSNLASGVPARFSGSGSGTSYSLTISSMEAEDAASYFCHQWSSYPPTFGAGTKLELK
# B21: KCD023 (antibody, V domains shown)
# VH: B20 VH with D33N, M34I, H50D, T58I, I59N, F101Y, H106Q
# VL: B20 VL with I10F, V13A, K39Q, A61G, S93T
# Columns and labels:
# [1] = target: T1, human Complement Factor D (CFD), purified from human serum (human, UniProt P00746 26-253); experiment: SPR MX96, mAbs amine-coupled, CFD injected
# T1 construct: serum purified (CompTech A136); also called serum purified CFD; hCFD-Comptech
# [2] = target: T2, recombinant cynomolgus CFD, His-tagged (cynomolgus); experiment: SPR MX96
# T2 construct: also called rcyCFD-His; recombinant Cyno-CFD
# T1 sequence (P00746 26-253): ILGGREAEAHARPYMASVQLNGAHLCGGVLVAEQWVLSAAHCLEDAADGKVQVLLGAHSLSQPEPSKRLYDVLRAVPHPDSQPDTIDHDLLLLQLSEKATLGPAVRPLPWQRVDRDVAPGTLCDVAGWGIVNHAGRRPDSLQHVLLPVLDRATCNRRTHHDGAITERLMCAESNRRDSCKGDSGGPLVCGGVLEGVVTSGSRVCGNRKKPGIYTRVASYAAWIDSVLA
Binder,Kd [1],Kd [2]
B1,0.225 nM,–
B2,–,7.2 nM
B3,77.5 nM,–
B4,24 nM,–
B5,2.71 nM,–
B6,60.2 nM,–
B7,9.91 nM,–
B8,10.9 nM,–
B9,25.5 nM,–
B10,–,13 nM
B11,1.43 nM,–
B12,2.62 nM,–
B13,1.39 nM,–
B14,5.57 nM,–
B15,–,5.5 nM
B16,4.32 nM,–
B17,6.23 nM,–
B18,1.87 nM,–
B19,56.8 nM,–
B20,3.05 nM,–
B21,5.29 nM,–
